For this experiment, the target named is T1, full-length mouse wild-type Keap1-6xHis (Kelch-like ECH-associated protein 1) (mouse, UniProt Q9Z2X8 1-624).
T1 construct: Keap1, mouse, full-length protein Met1-Cys624; also called full-length Keap1; Keap1 homodimer; not shown: 6xHis, C-terminal, kept
As to the kind of experiment: NMR titration; competition: preformed complex of 0.05 mM 13C/15N-Neh2 and 0.1 mM Keap1 (1:2) titrated with p62-KIR peptide (phosphorylated 0.25-5 mM, non-phosphorylated 1.0 and 5 mM); 20 mM Tris-HCl pH 8.0, 100 mM NaCl, 4 mM TCEP; read-out is recovery of Neh2 signals. The settings on record: both partners purified.

Square brackets hold non-standard residues; d marks the D form. Ends that are not written are not given here. pS = N[C@@H](COP(=O)(O)O)C(=O)O

T1 sequence (Q9Z2X8 whole entry): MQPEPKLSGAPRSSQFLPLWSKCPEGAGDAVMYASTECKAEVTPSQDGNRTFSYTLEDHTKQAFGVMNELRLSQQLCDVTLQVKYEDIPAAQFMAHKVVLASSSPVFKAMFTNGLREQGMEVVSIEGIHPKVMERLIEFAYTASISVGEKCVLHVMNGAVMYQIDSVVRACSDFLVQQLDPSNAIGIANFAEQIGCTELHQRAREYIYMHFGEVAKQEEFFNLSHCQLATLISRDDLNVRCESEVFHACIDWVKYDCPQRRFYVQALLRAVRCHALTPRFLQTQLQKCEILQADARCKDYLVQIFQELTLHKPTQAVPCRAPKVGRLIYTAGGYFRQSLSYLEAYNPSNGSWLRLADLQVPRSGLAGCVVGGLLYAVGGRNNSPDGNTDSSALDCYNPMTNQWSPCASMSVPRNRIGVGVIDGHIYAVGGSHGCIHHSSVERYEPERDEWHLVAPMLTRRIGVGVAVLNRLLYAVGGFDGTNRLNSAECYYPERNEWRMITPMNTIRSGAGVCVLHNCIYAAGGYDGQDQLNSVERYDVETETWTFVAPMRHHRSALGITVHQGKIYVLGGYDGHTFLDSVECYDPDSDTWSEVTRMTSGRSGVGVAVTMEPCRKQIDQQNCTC

B1: phosphorylated p62-KIR peptide (peptide)
peptide: KEVDP[pS]TGELQSLQ
notes: also called P-p62-KIR; p62-pKIR peptide; source: bought: Toray Research Center
Consider B1, for which the binding result is “binds”.
